# From paper PMC5159797
# B1: GST-SKAP [not stated] / GFP-Kif2b [human] (parent)
# chain 1: MAAPEAPPLDRVFRTTWLSTECDSHPLPPSYRKFLFETQAADLAGGTTVAAGNLLNESEKDCGQDRRAPGVQPCRLVTMTSVVKTVYSLQPPSALSGGQPADTQTRATSKSLLPVRSKEVDVSKQLHSGGPENDVTKITKLRRENGQMKATDTATRRNVRKGYKPLSKQKSEEELKDKNQLLEAVNKQLHQKLTETQGELKDLTQKVELLEKFRDNCLAILESKGLDPALGSETLASRQESTTDHMDSMLLLETLQEELKLFNETAKKQMEELQALKVKLEMKEERVRFLEQQTLCNNQVNDLTTALKEMEQLLEM
# chain 2: MASQFCLPESPCLSPLKPLKPHFGDIQEGIYVAIQRSDKRIHLAVVTEINRENYWVTVEWVEKAVKKGKKIDLETILLLNPALDSAEHPMPPPPLSPLALAPSSAIRDQRTATKWVAMIPQKNQTASGDSLDVRVPSKPCLMKQKKSPCLWEIQKLQEQREKRRRLQQEIRARRALDVNTRNPNYEIMHMIEEYRRHLDSSKISVLEPPQEHRICVCVRKRPLNQRETTLKDLDIITVPSDNVVMVHESKQKVDLTRYLQNQTFCFDHAFDDKASNELVYQFTAQPLVESIFRKGMATCFAYGQTGSGKTYTMGGDFSGTAQDCSKGIYALVAQDVFLLLRNSTYEKLDLKVYGTFFEIYGGKVYDLLNWKKKLQVLEDGNQQIQVVGLQEKEVCCVEEVLNLVEIGNSCRTSRQTPVNAHSSRSHAVFQIILKSGRIMHGKFSLVDLAGNERGADTTKASRKRQLEGAEINKSLLALKECILALGQNKPHTPFRASKLTLVLRDSFIGQNSSTCMIATISPGMTSCENTLNTLRYANRVKKLNVDVRPYHRGHYPIGHEAPRMLKSHIGNSEMSLQRDEFIKIPYVQSEEQKEIEEVETLPTLLGKDTTISGKGSSQWLENIQERAGGVHHDIDFCIARSLSILEQKIDALTEIQKKLKLLLADLHVKSKVE
# Variants of: B1
# Assay: GST pull-down, anti-GFP blot quantified
# Details: with GFP-Kif2b [human]; GFP-Kif2b from HEK293T cell lysates; parent: 1; read off a plot
row,Variant,ratio to parent
1,chain 1 S232A S237A T294A,0.7
2,chain 1 S232E S237E T294E,1.2
